The text below walks through data of publication PMC5421625 (2017).

T1: MCPyV (Merkel cell polyomavirus) common T-Ag peptide on HLA-A*02:01 (human)
T1 peptide: KLLEIAPNC

T2: MCPyV (Merkel cell polyomavirus) common T-Ag peptide on HLA-A*02:01 (human)
T2 peptide: KLLEIAPNC

B1: w678 clonotype 2 (TCR)
alpha TRAV38-1*01 TRAJ43*01 CDR3: CAFRVSHDMRF
beta TRBV19*01 TRBJ2-1*01 CDR3: CASSIIAGSSYNEQFF
B2: w678 clonotype 4 (TCR)
alpha TRAV12-1*01 TRAJ45*01 CDR3: CVVATYSGGGADGLTF
beta TRBV10-2*01 TRBJ2-3*01 CDR3: CASSSGNPSTDTQYF
B3: w678 clonotype 5 (TCR)
alpha TRAV38-1*01 TRAJ43*01 CDR3: CAFRVSHDMRF
beta TRBV10-2*01 TRBJ2-3*01 CDR3: CASSSGNPSTDTQYF
B4: w830 clonotype 5 (TCR)
alpha TRAV12-1*01 TRAJ43*01 CDR3: CVVNANDMRF
beta TRBV10-3*01 TRBJ2-2*01 CDR3: CAIRARDQNTGELFF
B5: w876 clonotype 5 (TCR)
alpha TRAV38-1*01 TRAJ23*01 CDR3: CAYNQGGKLIF
beta TRBV10-2*01 TRBJ2-2*01 CDR3: CASSVLNTGELFF
B6: w830 clonotype 4 (TCR)
alpha TRAV12-1*01 TRAJ43*01 CDR3: CVLNNNDMRF
beta TRBV19*01 TRBJ1-5*01 CDR3: CASSILGASNQPQHF

One experiment has as its target T1, MCPyV (Merkel cell polyomavirus) common …. The experiment is described as follows: multimer staining.
As to B1, the binding result was “recognises”.

Turning to B2, the binding result is “recognises”.

As to B3, the binding result is reported as “recognises”.

The target in a further experiment is T2, MCPyV (Merkel cell polyomavirus) common …. The experiment in a line: multimer staining.
B4: the binding result was “recognises”.

Turning to B5, the binding result is given as “recognises”.

With B6, the binding result is listed as “recognises”.

Consider B2, for which the binding result was “recognises”.
